The results in this text go back to patent US20180155451A1 (published 2018).

For assay [1], the target named is T1, FcγRIIa H (FcγRIIa type H, His at position 131), extracellular domain with C-terminal His tag (human, UniProt P12318 34-217).
T1 construct: extracellular domain; also called 2aH; FcgRIIa H; not shown: His tag at the C terminus
T1 sequence (looked up): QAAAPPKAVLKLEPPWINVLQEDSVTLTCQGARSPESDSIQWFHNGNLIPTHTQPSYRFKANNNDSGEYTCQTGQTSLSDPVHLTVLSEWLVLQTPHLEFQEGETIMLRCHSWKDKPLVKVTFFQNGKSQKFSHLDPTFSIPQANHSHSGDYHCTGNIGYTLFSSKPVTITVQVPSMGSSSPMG
The experiment in a line: SPR (Biacore), antibody captured on antigen-peptide chip, FcγR as analyte; GpH7-A5/GpH7-B3/GpL16-k0 = 100. The method, then:
(§1) The heterodimerized antibodies He Abs in which one of the H chains was introduced with an alteration were assayed for their binding activities to each activating FcγR and inhibitory FcγR according to the method described in Example 4. […] The activating FcγRs in FIGS. 26, 27, 28, and 29 are FcγRIa, FcγRIIa (R), FcγRIIa (H), and FcγRIIIa, respectively.
(§2) Analysis of interaction between objective antibody and the FcγR was carried out using Biacore T100 (GE Healthcare). HBS-EP+ (GE Healthcare) was used as the running buffer, and the measurement temperature was set to 25° C. Chips produced by immobilizing the antigen peptide by the amine coupling method to a Series S Sencor Chip CM5 (GE Healthcare), or alternatively, chips produced by allowing preliminarily biotinylated antigen peptides to interact with and immobilize onto a Series S Sensor Chip SA (certified) (GE Healthcare) were used. Antibodies of interest were captured onto an antigen peptide-immobilized chip, and allowed to interact to each FcγR diluted with running buffer. To regenerate and repeatedly use the chip, the antibodies captured on the chip were washed off by reacting 10 mM glycine-HCl, pH 1.5.
In general terms: Surface plasmon resonance follows binding to a sensor surface in real time, without labels.

In assay [2] the target is T2, FcγRIIb, extracellular domain with C-terminal His tag (human, UniProt P31994 43-217).
T2 construct: extracellular domain; also called 2b; FcgRIIb; not shown: His tag at the C terminus
T2 sequence (looked up): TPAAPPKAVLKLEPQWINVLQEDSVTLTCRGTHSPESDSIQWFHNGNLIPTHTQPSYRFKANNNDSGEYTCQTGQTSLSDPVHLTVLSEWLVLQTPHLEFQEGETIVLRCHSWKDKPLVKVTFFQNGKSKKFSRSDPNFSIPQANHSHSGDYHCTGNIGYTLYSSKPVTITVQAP
The assay is described as above. How it is done:
as §1, §2

For assay [3], the target named is T3, FcγRIIIa extracellular domain with C-terminal His tag (human, UniProt P08637 17-208).
T3 construct: extracellular domain; also called FcgRIIIa; 3a; not shown: His tag at the C terminus
T3 sequence (P08637 17-208): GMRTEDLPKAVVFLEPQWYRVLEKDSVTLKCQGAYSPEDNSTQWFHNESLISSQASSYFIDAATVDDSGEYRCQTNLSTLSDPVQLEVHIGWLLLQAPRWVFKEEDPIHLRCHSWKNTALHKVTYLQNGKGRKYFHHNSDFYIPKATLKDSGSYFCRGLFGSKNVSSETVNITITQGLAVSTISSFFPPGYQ
The experiment in a line: SPR (Biacore), antibody captured on antigen peptide chip, FcγR as analyte; relative binding amount. How it is done: as §2
(§3) The FcγR-binding activity of each antibody was assessed primarily using as an indicator the FcγR-binding activity and dissociation constant for FcγR.

Assay [4] has as its target T4, FcγRIIb extracellular domain with C-terminal His tag (human, UniProt P31994 43-217).
T4 construct: extracellular domain; also called FcgRIIb; 2b; not shown: His tag at the C terminus
T4 sequence (looked up): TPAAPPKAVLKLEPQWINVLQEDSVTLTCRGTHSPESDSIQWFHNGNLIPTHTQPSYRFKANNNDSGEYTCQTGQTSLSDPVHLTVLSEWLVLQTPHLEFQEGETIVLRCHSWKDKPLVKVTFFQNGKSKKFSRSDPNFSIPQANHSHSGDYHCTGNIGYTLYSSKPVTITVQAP
Described as above. The method, then:
as §2, §3

B1: GpH7-A5/GpH7-B3 variant Y300_19Q/GpL16-k0 (antibody, human IgG1, kappa)
heavy 1: not shown
heavy 2: not shown
light: DIVMTQSPLSLPVTPGEPASISCQASESLVHSNRNTYLHWYLQKPGQSPQLLIYKVSNRFSGVPDRFSGSGSGTDFTLKISRVEAEDVGVYYCSQNTHVPPTFGQGTKVEIERTVAAPSVFIFPPSDEQLKSGTASVVCLLNNFYPREAKVQWKVDNALQSGNSQESVTEQDSKDSTYSLSSTLTLSKADYEKHKVYACEVTHQGLSSPVTKSFNRGEC
notes: Heterodimerized IgG1 (He Ab); mutation only in the GpH7-B3 chain; also called He Ab Y300Q
Turning to B1, in assay [1], the “He/Con_2aH (relative binding activity)” value was 96.1 % of control. Also, the “He/Con_2b (relative binding activity)” value in assay [2] was 108 % of control.

B2: GpH7-A5/GpH7-B3 variant P271_10E/GpL16-k0 (antibody, human IgG1, kappa)
heavy 1: not shown
heavy 2: not shown
light: DIVMTQSPLSLPVTPGEPASISCQASESLVHSNRNTYLHWYLQKPGQSPQLLIYKVSNRFSGVPDRFSGSGSGTDFTLKISRVEAEDVGVYYCSQNTHVPPTFGQGTKVEIERTVAAPSVFIFPPSDEQLKSGTASVVCLLNNFYPREAKVQWKVDNALQSGNSQESVTEQDSKDSTYSLSSTLTLSKADYEKHKVYACEVTHQGLSSPVTKSFNRGEC
notes: Heterodimerized anti-glypican-3 IgG1; the substitution stands in the GpH7-B3 chain only; also called He Ab
On to B2, for which the He/Con_3a in assay [3] was 93.6 % of GpH7-A5/GpH7-B3/GpL16-k0 (=100). Further, the He/Con_2b in assay [4] was 109 % of GpH7-A5/GpH7-B3/GpL16-k0 (=100).

B3: GpH7-A5/GpH7-B3 variant H268_15Y/GpL16-k0 (antibody, human IgG1, kappa)
heavy 1: not shown
heavy 2: not shown
light: DIVMTQSPLSLPVTPGEPASISCQASESLVHSNRNTYLHWYLQKPGQSPQLLIYKVSNRFSGVPDRFSGSGSGTDFTLKISRVEAEDVGVYYCSQNTHVPPTFGQGTKVEIERTVAAPSVFIFPPSDEQLKSGTASVVCLLNNFYPREAKVQWKVDNALQSGNSQESVTEQDSKDSTYSLSSTLTLSKADYEKHKVYACEVTHQGLSSPVTKSFNRGEC
notes: as for B2
On to B3, for which the He/Con_3a in assay [3] was 97.5 % of GpH7-A5/GpH7-B3/GpL16-k0 (=100). For the same molecule, the He/Con_2b in assay [4] was 106 % of GpH7-A5/GpH7-B3/GpL16-k0 (=100).

B4: GpH7-A5/GpH7-B3 variant H268_03V/GpL16-k0 (antibody, human IgG1, kappa)
heavy 1: not shown
heavy 2: not shown
light: DIVMTQSPLSLPVTPGEPASISCQASESLVHSNRNTYLHWYLQKPGQSPQLLIYKVSNRFSGVPDRFSGSGSGTDFTLKISRVEAEDVGVYYCSQNTHVPPTFGQGTKVEIERTVAAPSVFIFPPSDEQLKSGTASVVCLLNNFYPREAKVQWKVDNALQSGNSQESVTEQDSKDSTYSLSSTLTLSKADYEKHKVYACEVTHQGLSSPVTKSFNRGEC
notes: as for B2
With B4, in assay [3], the He/Con_3a is 92.3 % of GpH7-A5/GpH7-B3/GpL16-k0 (=100). The He/Con_2b in assay [4] is 114 % of GpH7-A5/GpH7-B3/GpL16-k0 (=100).

B5: GpH7-A5/GpH7-B3 variant H268_01G/GpL16-k0 (antibody, human IgG1, kappa)
heavy 1: not shown
heavy 2: not shown
light: DIVMTQSPLSLPVTPGEPASISCQASESLVHSNRNTYLHWYLQKPGQSPQLLIYKVSNRFSGVPDRFSGSGSGTDFTLKISRVEAEDVGVYYCSQNTHVPPTFGQGTKVEIERTVAAPSVFIFPPSDEQLKSGTASVVCLLNNFYPREAKVQWKVDNALQSGNSQESVTEQDSKDSTYSLSSTLTLSKADYEKHKVYACEVTHQGLSSPVTKSFNRGEC
notes: as for B2
With B5, in assay [3], the He/Con_3a was 96.7 % of GpH7-A5/GpH7-B3/GpL16-k0 (=100). Also, the He/Con_2b in assay [4] was 144 % of GpH7-A5/GpH7-B3/GpL16-k0 (=100).

B6: GpH7-A5/GpH7-B3 variant H268_20W/GpL16-k0 (antibody, human IgG1, kappa)
heavy 1: not shown
heavy 2: not shown
light: DIVMTQSPLSLPVTPGEPASISCQASESLVHSNRNTYLHWYLQKPGQSPQLLIYKVSNRFSGVPDRFSGSGSGTDFTLKISRVEAEDVGVYYCSQNTHVPPTFGQGTKVEIERTVAAPSVFIFPPSDEQLKSGTASVVCLLNNFYPREAKVQWKVDNALQSGNSQESVTEQDSKDSTYSLSSTLTLSKADYEKHKVYACEVTHQGLSSPVTKSFNRGEC
notes: as for B2
On to B6, for which the He/Con_3a in assay [3] is 82.8 % of GpH7-A5/GpH7-B3/GpL16-k0 (=100). Also, in assay [4], the He/Con_2b was 111 % of GpH7-A5/GpH7-B3/GpL16-k0 (=100).

B7: GpH7-A5/GpH7-B3 variant H268_05P/GpL16-k0 (antibody, human IgG1, kappa)
heavy 1: not shown
heavy 2: not shown
light: DIVMTQSPLSLPVTPGEPASISCQASESLVHSNRNTYLHWYLQKPGQSPQLLIYKVSNRFSGVPDRFSGSGSGTDFTLKISRVEAEDVGVYYCSQNTHVPPTFGQGTKVEIERTVAAPSVFIFPPSDEQLKSGTASVVCLLNNFYPREAKVQWKVDNALQSGNSQESVTEQDSKDSTYSLSSTLTLSKADYEKHKVYACEVTHQGLSSPVTKSFNRGEC
notes: as for B2
Turning to B7, the He/Con_3a in assay [3] was 76.4 % of GpH7-A5/GpH7-B3/GpL16-k0 (=100). In assay [4], the He/Con_2b is 116 % of GpH7-A5/GpH7-B3/GpL16-k0 (=100).
